These results are taken from paper PMC7026398, “Structural and functional insight into the effect of AFF4 dimerization on activation of HIV-1 proviral transcription” (Cell Discovery, 2020).

Data set [1] concerns the molecule itself. Briefly: SEC; analytical gel filtration, Superdex 75 10/300 increase, 25 mM Tris pH 8.0, 150 mM NaCl, 2 mM DTT; 6 mg/ml, 100 μl injected; self-association, dimer or monomer by elution volume.
In data set [2] the target is Flag-AFF4 F1014A, full length (human) (UniProt Q9UHB7).
Data set [3] addresses Flag-AFF4 Y1096A, full length (human) (UniProt Q9UHB7).

B1: AFF1-THD (953-1210), wild type (domain or fragment, UniProt P51825 953-1210, looked up)
chain: GKPQVKFDKQQADLHMREAKKMKQKAELMTDRVGKAFKYLEAVLSFIECGIATESESQSSKSAYSVYSETVDLIKFIMSLKSFSDATAPTQEKIFAVLCMRCQSILNMAMFRCKKDIAIKYSRTLNKHFESSSKVAQAPSPCIASTGTPSPLSPMPSPASSVGSQSSAGSVGSSGVAATISTPVTIQNMTSSYVTITSHVLTAFDLWEQAEALTRKNKEFFARLSTNVCTLALNSSLVDLVHYTRQGFQQLQELTKTP
notes: AFF1 THD, residues 953-1210; the limits 953-1210 fit human AFF1; also called wild-type AFF1-THD; source: E. coli BL21 (DE3), purified (Ni-NTA, Hi-Trap SP HP, TEV digestion, Superdex 200); not shown: His6, N-terminal, cleaved
In general, stoichiometry N refers to the number of molecules, sites or subunits per partner or assembly. For B1, the “stoichiometry N” value in data set [1] amounted to 2.

B2: AFF1-THD F1063A+Y1145A (domain or fragment, UniProt P51825 953-1210, looked up)
chain: GKPQVKFDKQQADLHMREAKKMKQKAELMTDRVGKAFKYLEAVLSFIECGIATESESQSSKSAYSVYSETVDLIKFIMSLKSFSDATAPTQEKIFAVLCMRCQSILNMAMARCKKDIAIKYSRTLNKHFESSSKVAQAPSPCIASTGTPSPLSPMPSPASSVGSQSSAGSVGSSGVAATISTPVTIQNMTSSAVTITSHVLTAFDLWEQAEALTRKNKEFFARLSTNVCTLALNSSLVDLVHYTRQGFQQLQELTKTP
notes: AFF1 THD, residues 953-1210, with F1063A and Y1145A; source: E. coli BL21 (DE3), purified (Ni-NTA, Hi-Trap SP HP, TEV digestion, Superdex 200); not shown: His6, N-terminal, cleaved
With B2, the binding result in data set [1] is given as “binds”.

B3: AFF1-THD Y1145A (domain or fragment, UniProt P51825 953-1210, looked up)
chain: GKPQVKFDKQQADLHMREAKKMKQKAELMTDRVGKAFKYLEAVLSFIECGIATESESQSSKSAYSVYSETVDLIKFIMSLKSFSDATAPTQEKIFAVLCMRCQSILNMAMFRCKKDIAIKYSRTLNKHFESSSKVAQAPSPCIASTGTPSPLSPMPSPASSVGSQSSAGSVGSSGVAATISTPVTIQNMTSSAVTITSHVLTAFDLWEQAEALTRKNKEFFARLSTNVCTLALNSSLVDLVHYTRQGFQQLQELTKTP
notes: AFF1 THD, residues 953-1210, with Y1145A; also called AFF1^Y1145A; source: E. coli BL21 (DE3), purified (Ni-NTA, Hi-Trap SP HP, TEV digestion, Superdex 200); not shown: His6, N-terminal, cleaved
Consider B3, for which the binding result in data set [1] is “binds”.

B4: AFF1-THD F1063A (domain or fragment, UniProt P51825 953-1210, looked up)
chain: GKPQVKFDKQQADLHMREAKKMKQKAELMTDRVGKAFKYLEAVLSFIECGIATESESQSSKSAYSVYSETVDLIKFIMSLKSFSDATAPTQEKIFAVLCMRCQSILNMAMARCKKDIAIKYSRTLNKHFESSSKVAQAPSPCIASTGTPSPLSPMPSPASSVGSQSSAGSVGSSGVAATISTPVTIQNMTSSYVTITSHVLTAFDLWEQAEALTRKNKEFFARLSTNVCTLALNSSLVDLVHYTRQGFQQLQELTKTP
notes: AFF1 THD, residues 953-1210, with F1063A; also called AFF1^F1063A; source: E. coli BL21 (DE3), purified (Ni-NTA, Hi-Trap SP HP, TEV digestion, Superdex 200); not shown: His6, N-terminal, cleaved
B4: the binding result in data set [1] was “binds”.

B5: Flag-AFF4 F1014A, full length (natural protein)
chain: MNREDRNVLRMKERERRNQEIQQGEDAFPPSSPLFAEPYKVTSKEDKLSSRIQSMLGNYDEMKDFIGDRSIPKLVAIPKPTVPPSADEKSNPNFFEQRHGGSHQSSKWTPVGPAPSTSQSQKRSSGLQSGHSSQRTSAGSSSGTNSSGQRHDRESYNNSGSSSRKKGQHGSEHSKSRSSSPGKPQAVSSLNSSHSRSHGNDHHSKEHQRSKSPRDPDANWDSPSRVPFSSGQHSTQSFPPSLMSKSNSMLQKPTAYVRPMDGQESMEPKLSSEHYSSQSHGNSMTELKPSSKAHLTKLKIPSQPLDASASGDVSCVDEILKEMTHSWPPPLTAIHTPCKTEPSKFPFPTKESQQSNFGTGEQKRYNPSKTSNGHQSKSMLKDDLKLSSSEDSDGEQDCDKTMPRSTPGSNSEPSHHNSEGADNSRDDSSSHSGSESSSGSDSESESSSSDSEANEPSQSASPEPEPPPTNKWQLDNWLNKVNPHKVSPASSVDSNIPSSQGYKKEGREQGTGNSYTDTSGPKETSSATPGRDSKTIQKGSESGRGRQKSPAQSDSTTQRRTVGKKQPKKAEKAAAEEPRGGLKIESETPVDLASSMPSSRHKAATKGSRKPNIKKESKSSPRPTAEKKKYKSTSKSSQKSREIIETDTSSSDSDESESLPPSSQTPKYPESNRTPVKPSSVEEEDSFFRQRMFSPMEEKELLSPLSEPDDRYPLIVKIDLNLLTRIPGKPYKETEPPKGEKKNVPEKHTREAQKQASEKVSNKGKRKHKNEDDNRASESKKPKTEDKNSAGHKPSSNRESSKQSAAKEKDLLPSPAGPVPSKDPKTEHGSRKRTISQSSSLKSSSNSNKETSGSSKNSSSTSKQKKTEGKTSSSSKEVKEKAPSSSSNCPPSAPTLDSSKPRRTKLVFDDRNYSADHYLQEAKKLKHNADALSDRFEKAVYYLDAVVSFIECGNALEKNAQESKSPFPMYSETVDLIKYTMKLKNYLAPDATAADKRLTVLCLRCESLLYLRLAKLKKENALKYSKTLTEHLKNSYNNSQAPSPGLGSKAVGMPSPVSPKLSPGNSGNYSSGASSASASGSSVTIPQKIHQMAASYVQVTSNFLYATEIWDQAEQLSKEQKEFFAELDKVMGPLIFNASIMTDLVRYTRQGLHWLRQDAKLIS
The molecule B5 displayed an HIV-LTR-luciferase reporter in NH1 cells, overexpressed Flag-AFF4 mutant against wild type (% less than wild type) in data set [2] of 10.

B6: Flag-AFF4 Y1096A, full length (natural protein)
chain: MNREDRNVLRMKERERRNQEIQQGEDAFPPSSPLFAEPYKVTSKEDKLSSRIQSMLGNYDEMKDFIGDRSIPKLVAIPKPTVPPSADEKSNPNFFEQRHGGSHQSSKWTPVGPAPSTSQSQKRSSGLQSGHSSQRTSAGSSSGTNSSGQRHDRESYNNSGSSSRKKGQHGSEHSKSRSSSPGKPQAVSSLNSSHSRSHGNDHHSKEHQRSKSPRDPDANWDSPSRVPFSSGQHSTQSFPPSLMSKSNSMLQKPTAYVRPMDGQESMEPKLSSEHYSSQSHGNSMTELKPSSKAHLTKLKIPSQPLDASASGDVSCVDEILKEMTHSWPPPLTAIHTPCKTEPSKFPFPTKESQQSNFGTGEQKRYNPSKTSNGHQSKSMLKDDLKLSSSEDSDGEQDCDKTMPRSTPGSNSEPSHHNSEGADNSRDDSSSHSGSESSSGSDSESESSSSDSEANEPSQSASPEPEPPPTNKWQLDNWLNKVNPHKVSPASSVDSNIPSSQGYKKEGREQGTGNSYTDTSGPKETSSATPGRDSKTIQKGSESGRGRQKSPAQSDSTTQRRTVGKKQPKKAEKAAAEEPRGGLKIESETPVDLASSMPSSRHKAATKGSRKPNIKKESKSSPRPTAEKKKYKSTSKSSQKSREIIETDTSSSDSDESESLPPSSQTPKYPESNRTPVKPSSVEEEDSFFRQRMFSPMEEKELLSPLSEPDDRYPLIVKIDLNLLTRIPGKPYKETEPPKGEKKNVPEKHTREAQKQASEKVSNKGKRKHKNEDDNRASESKKPKTEDKNSAGHKPSSNRESSKQSAAKEKDLLPSPAGPVPSKDPKTEHGSRKRTISQSSSLKSSSNSNKETSGSSKNSSSTSKQKKTEGKTSSSSKEVKEKAPSSSSNCPPSAPTLDSSKPRRTKLVFDDRNYSADHYLQEAKKLKHNADALSDRFEKAVYYLDAVVSFIECGNALEKNAQESKSPFPMYSETVDLIKYTMKLKNYLAPDATAADKRLTVLCLRCESLLYLRLFKLKKENALKYSKTLTEHLKNSYNNSQAPSPGLGSKAVGMPSPVSPKLSPGNSGNYSSGASSASASGSSVTIPQKIHQMAASAVQVTSNFLYATEIWDQAEQLSKEQKEFFAELDKVMGPLIFNASIMTDLVRYTRQGLHWLRQDAKLIS
In data set [3], B6 returned an HIV-LTR-luciferase reporter in NH1 cells, overexpressed Flag-AFF4 mutant against wild type (fold less than wild type) of 1.

B7: human AFF4-THD (902-1163), wild type (domain or fragment, UniProt Q9UHB7 902-1163, looked up)
chain: RRTKLVFDDRNYSADHYLQEAKKLKHNADALSDRFEKAVYYLDAVVSFIECGNALEKNAQESKSPFPMYSETVDLIKYTMKLKNYLAPDATAADKRLTVLCLRCESLLYLRLFKLKKENALKYSKTLTEHLKNSYNNSQAPSPGLGSKAVGMPSPVSPKLSPGNSGNYSSGASSASASGSSVTIPQKIHQMAASYVQVTSNFLYATEIWDQAEQLSKEQKEFFAELDKVMGPLIFNASIMTDLVRYTRQGLHWLRQDAKLIS
notes: AFF4 THD (TPRL with Handle Region Dimerization Domain, C-terminal homology domain), human, residues 902-1163; A selenomethionyl form was used for phasing only; The general purification text tells of TEV digestion and removal of the His6-tag, but only the N-terminal tag of AFF1-THD is called removable; also called AFF-THD; THD of AFF4; source: E. coli BL21 (DE3), purified (Ni-NTA, Hi-Trap SP HP, …)
With B7, the “stoichiometry N” value in data set [1] is 2.

B8: AFF4-THD V1097A (domain or fragment, human, UniProt Q9UHB7 902-1163, looked up)
chain: RRTKLVFDDRNYSADHYLQEAKKLKHNADALSDRFEKAVYYLDAVVSFIECGNALEKNAQESKSPFPMYSETVDLIKYTMKLKNYLAPDATAADKRLTVLCLRCESLLYLRLFKLKKENALKYSKTLTEHLKNSYNNSQAPSPGLGSKAVGMPSPVSPKLSPGNSGNYSSGASSASASGSSVTIPQKIHQMAASYAQVTSNFLYATEIWDQAEQLSKEQKEFFAELDKVMGPLIFNASIMTDLVRYTRQGLHWLRQDAKLIS
notes: AFF4 THD, human, residues 902-1163, with V1097A; PDB 6K7P is the wild-type parent of the same limits; also called AFF4-THD^Val1097A; Val1097A; source: E. coli BL21 (DE3), purified (Ni-NTA, Hi-Trap SP HP, Superdex 200)
Consider B8, for which the binding result in data set [1] was “binds”.

B9: AFF4-THD T1100A+Y1096F (domain or fragment, human, UniProt Q9UHB7 902-1163, looked up)
chain: RRTKLVFDDRNYSADHYLQEAKKLKHNADALSDRFEKAVYYLDAVVSFIECGNALEKNAQESKSPFPMYSETVDLIKYTMKLKNYLAPDATAADKRLTVLCLRCESLLYLRLFKLKKENALKYSKTLTEHLKNSYNNSQAPSPGLGSKAVGMPSPVSPKLSPGNSGNYSSGASSASASGSSVTIPQKIHQMAASFVQVASNFLYATEIWDQAEQLSKEQKEFFAELDKVMGPLIFNASIMTDLVRYTRQGLHWLRQDAKLIS
notes: AFF4 THD, human, residues 902-1163, with T1100A and Y1096F; PDB 6K7P is the wild-type parent of the same limits; source: E. coli BL21 (DE3), purified (Ni-NTA, Hi-Trap SP HP, Superdex 200)
Regarding B9, the binding result in data set [1] is reported as “binds”.

B10: AFF4-THD Y1024A (domain or fragment, human, UniProt Q9UHB7 902-1163, looked up)
chain: RRTKLVFDDRNYSADHYLQEAKKLKHNADALSDRFEKAVYYLDAVVSFIECGNALEKNAQESKSPFPMYSETVDLIKYTMKLKNYLAPDATAADKRLTVLCLRCESLLYLRLFKLKKENALKASKTLTEHLKNSYNNSQAPSPGLGSKAVGMPSPVSPKLSPGNSGNYSSGASSASASGSSVTIPQKIHQMAASYVQVTSNFLYATEIWDQAEQLSKEQKEFFAELDKVMGPLIFNASIMTDLVRYTRQGLHWLRQDAKLIS
notes: AFF4 THD, human, residues 902-1163, with Y1024A; PDB 6K7P is the wild-type parent of the same limits; source: E. coli BL21 (DE3), purified (Ni-NTA, Hi-Trap SP HP, Superdex 200)
In the case of B10, in data set [1], the binding result was “binds”.

B11: AFF4-THD S1025A (domain or fragment, human, UniProt Q9UHB7 902-1163, looked up)
chain: RRTKLVFDDRNYSADHYLQEAKKLKHNADALSDRFEKAVYYLDAVVSFIECGNALEKNAQESKSPFPMYSETVDLIKYTMKLKNYLAPDATAADKRLTVLCLRCESLLYLRLFKLKKENALKYAKTLTEHLKNSYNNSQAPSPGLGSKAVGMPSPVSPKLSPGNSGNYSSGASSASASGSSVTIPQKIHQMAASYVQVTSNFLYATEIWDQAEQLSKEQKEFFAELDKVMGPLIFNASIMTDLVRYTRQGLHWLRQDAKLIS
notes: AFF4 THD, human, residues 902-1163, with S1025A; PDB 6K7P is the wild-type parent of the same limits; source: E. coli BL21 (DE3), purified (Ni-NTA, Hi-Trap SP HP, Superdex 200)
In the case of B11, the binding result in data set [1] is recorded as “binds”.
